PMC10527703 (Structure (London, England : 1993), 2023)

Molecular target: the molecule itself
Experiment: ThT fluorescence aggregation + negative-stain TEM

Binding result, binds:
TENLQHQPGGGQVQIVYK (peptide, UniProt P10636-8 263-274, looked up) [R1R3_12Q]
TENLKHQPGGGQVQIVYQ (peptide, UniProt P10636-8 263-274, looked up) [R1R3_23Q]
KDNIQHVPGGGSVQIVYK (peptide, UniProt P10636-8 294-311, looked up) [R2R3_2Q]
TENLQHQPGGGKVQIVYQ (peptide, UniProt P10636-8 263-274, looked up) [R1R3_13Q]
